This note sets out measurements from the supplement of paper PMC10567573.

This series in a line: protein stability index of a GFP-peptide fusion (GPS, HEK-293T) (PSI 1-6); higher = more stable.
Setting [1] is: treatment: DMSO, c terminus: a fixed tail appended.
Where [2] appears, read: treatment: MLN4924 1 uM, 8 h, c terminus: a fixed tail appended.
The mark [3] stands for this setting: treatment: DMSO, c terminus: native.
[4] abbreviates: treatment: MLN4924 1 uM, 8 h, c terminus: native.

± gives the standard deviation.
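Further: 24-mer peptide tiles fused after GFP, lentivirally expressed, FACS-sorted into six equal bins by GFP/DsRed ratio, decoded by Illumina sequencing, PSI is the read-weighted mean bin number.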

On to CRREAFRRLGNGVSDDLSSEEDGE [PHTF1], for which the protein stability index reads like this: under setting [1], 4.94 ± 0.19; under setting [2], 4.77 ± 0.13.

CSQHWGGMASFRFPETTFISVTAY [TBX6]: the protein stability index amounted to 3.18 ± 0.6 under setting [1] and 2.85 ± 0.47 under setting [2].

Turning to CTACGSVLEDNIIVSEVQFVESSG [BRF1], the protein stability index was 3.42 ± 0.57 under setting [1] and 3.74 ± 0.35 under setting [2].

CTLGICGQGLKSYMTKPSKSLLPH [RTP4]: the protein stability index is, setting by setting: under setting [1], 2.2 ± 0.3; under setting [2], 2.21 ± 0.35.

Turning to CVLRCSVLEIEQSMNRVKNISDAD [FEM1B], the protein stability index reads like this: under setting [1], 2.58 ± 0.37; under setting [2], 2.83 ± 0.24.

Regarding CWLNAFAEMLRFGDRMFYRDWWNS [SOAT2], the protein stability index by setting is: under setting [1], 2.47 ± 0.4; under setting [2], 2.91 ± 0.16.

CYSEEITVCGDLHGQLDDLIFIFY [PPEF2] returned a protein stability index under setting [1] of 2.96 ± 0.43 and a protein stability index under setting [2] of 2.65 ± 0.46.

Regarding CYYCQAYVHHQALLDVKNIAHQNK [HDAC6], the protein stability index amounted to 2.61 ± 0.33 under setting [1] and 2.33 ± 0.48 under setting [2].

DAAGHGFCYCAGSHKRKRSSGSFC [GMCL1] displayed a protein stability index under setting [1] of 3.08 ± 0.22 and a protein stability index under setting [2] of 3.35 ± 0.15.

As for DAEVSCTDNGTFNLSRGQTPLTEG [RETREG3], the protein stability index stood at 5.2 ± 0.25 under setting [1] and 5.32 ± 0.1 under setting [2].

As to DDGIKVVKVTFNKQDSLVILTIMA [TMEM106C], the protein stability index was 2.71 ± 1 under setting [1] and 3.11 ± 1 under setting [2].

As to DDIARIYQPKRYALSPKTTITMAH [FAM98B], the protein stability index runs as follows: under setting [1], 2.77 ± 0.21; under setting [2], 2.92 ± 0.17.

As for DDPENKKTSSSSKAGFTASPFTNL [CDC14A], the protein stability index runs as follows: under setting [1], 4.92 ± 0.27; under setting [2], 4.95 ± 0.14.

As for DDSGGPTPSSYAPSHPPRPLLPLD [ZBTB22], the protein stability index amounted to 4.54 ± 0.25 under setting [1] and 4.79 ± 0.22 under setting [2].

For DEEERRRRVFDVPIRRRRCSRLF [FBXO3], the protein stability index is 3.32 ± 0.61 under setting [3] and 3.73 ± 0.82 under setting [4].

DEIEEVPTTSHRLSRHDKAVQRFC [NETO1]: the protein stability index came out at 4.78 ± 0.18 under setting [1] and 4.68 ± 0.1 under setting [2].

In the case of DENEDVNFDHFEILRAIGKGSFGK [STK32A], the protein stability index reads like this: under setting [1], 4.22 ± 0.18; under setting [2], 4.14 ± 0.17.

Turning to DFGLAIEVQGDQQAWFGFAGTPGY [CAMK2B], the protein stability index came out at 2.26 ± 0.35 under setting [1] and 2.15 ± 0.3 under setting [2].

As for DFIDCVREKGGKVLVHCEAGISRS [DUSP5], the protein stability index runs as follows: under setting [1], 2.77 ± 0.2; under setting [2], 2.79 ± 0.41.

For DGASQDCPPLPAGVSFHIDSAELE [FBXO34], the protein stability index runs as follows: under setting [1], 5.39 ± 0.14; under setting [2], 5.4 ± 0.16.

For the sequence DGLREALANLRGLSEEERSEKAML [CCDC89], the protein stability index is, setting by setting: under setting [1], 4.93 ± 0.22; under setting [2], 4.51 ± 0.44.

As for DGSGMPKTMQSEETRVWHRRDGKW [CAMK2D], the protein stability index is, setting by setting: under setting [1], 4.49 ± 0.35; under setting [2], 4.59 ± 0.095.

In the case of DHGCEQLCLNTEDSFVCQCSEGFL [MATN2], the protein stability index was 4.18 ± 0.21 under setting [1] and 4.06 ± 0.3 under setting [2].

For DIKKVNNFIREQDLYALKSVKIPV [LYSMD4], the protein stability index was 2.38 ± 0.15 under setting [1] and 2.53 ± 0.4 under setting [2].

As for DKENGENVGLESKYLKKREDSIPL [SASS6], the protein stability index is, setting by setting: under setting [1], 5.03 ± 0.18; under setting [2], 4.76 ± 0.24.

Regarding DLEAQMESLKEELLSLKQNHEQEV [KRT33B], the protein stability index is, setting by setting: under setting [1], 4.95 ± 0.32; under setting [2], 4.96 ± 0.22.

Consider DLMKRLRFALIPAPELVERVQSVD [KLHL14], for which the protein stability index runs as follows: under setting [1], 2.16 ± 0.14; under setting [2], 2.3 ± 0.21.

In the case of DLVKKIRDFHRKILTLPEMMRMFS [TRIM15], the protein stability index is 2.45 ± 0.46 under setting [1] and 2.35 ± 0.19 under setting [2].

For the sequence DPLSPMTASSLLSFAELFSFMLQD [FEM1C], the protein stability index was found to be 2.71 ± 0.49 under setting [1] and 2.42 ± 0.51 under setting [2].

For DQEAVCLICAISHTHRAHTVVPLD [TRIM39], the protein stability index is, setting by setting: under setting [1], 2.22 ± 0.21; under setting [2], 2.19 ± 0.35.

Consider DRADYYLEEFKENAYKDLAWKHGN [PCMTD2], for which the protein stability index reads like this: under setting [1], 3.75 ± 0.084; under setting [2], 3.07 ± 0.77.

As for DREEEAIHHLVLTASDGGDPLRSG [PCDHGA10], the protein stability index was found to be 5.02 ± 0.2 under setting [1] and 5.08 ± 0.11 under setting [2].

Consider DRTFTLKTVLMIAIQLLSRMEYVH [CSNK1G1], for which the protein stability index stood at 3.15 ± 0.067 under setting [1] and 2.65 ± 1.1 under setting [2].

DTSFLPDRDREEEENRLREELRQE [FAM50A] returned a protein stability index under setting [1] of 5.17 ± 0.31 and a protein stability index under setting [2] of 5.41 ± 0.18.

DVAEGYRKLSLKGHNDWVMDVAIS [WDR88]: the protein stability index is 2.47 ± 0.31 under setting [1] and 2.69 ± 0.5 under setting [2].

DVAISANIADIEEKRGFTSHFVFV [NCF4]: the protein stability index worked out at 2.23 ± 0.6 under setting [1] and 2.55 ± 0.47 under setting [2].

Regarding DVMLVECYDPKGDQWNILQTPILE [KLHL14], the protein stability index by setting is: under setting [1], 2.55 ± 0.36; under setting [2], 2.64 ± 0.38.

Take DVPNRLVDNIDMIDGDGDDMERFM [BEX5]: the protein stability index is, setting by setting: under setting [1], 4.98 ± 0.18; under setting [2], 5.06 ± 0.21.

For DVPVIPLDVVDNQTEKLDTNITEV [CASP6], the protein stability index runs as follows: under setting [1], 5.19 ± 0.067; under setting [2], 5.14 ± 0.3.

For the sequence EAAGVVVEEELFHQQGTPRASNRS [LMNB1], the protein stability index runs as follows: under setting [1], 5.31 ± 0.41; under setting [2], 5.47 ± 0.14.

In the case of EAFKNILTEIYRIVSQKQIADRAA [RAB11B], the protein stability index by setting is: under setting [1], 2.81 ± 0.4; under setting [2], 2.81 ± 0.49.

For the sequence EALNERHSIINALKAKLQMTEAAL [LRRC45], the protein stability index reads like this: under setting [1], 2.66 ± 0.2; under setting [2], 2.91 ± 0.3.

As to EAPALGGGEYQEPGGNVKGVWAPP [BEX5], the protein stability index is 4.57 ± 0.37 under setting [1] and 4.71 ± 0.14 under setting [2].

Regarding EARICRLLKHPNIVRLHDSISEEG [CAMK2D], the protein stability index reads like this: under setting [1], 3.56 ± 0.47; under setting [2], 3.34 ± 0.28.

Regarding EAVKYYTLEEIQKHNHSKSTWLIL [CYB5A], the protein stability index reads like this: under setting [1], 2.44 ± 0.65; under setting [2], 2.3 ± 0.24.

Turning to EAVSDSTPFLTNHGAHKAEKKLFE [ZNF263], the protein stability index reads like this: under setting [1], 4.65 ± 0.5; under setting [2], 4.42 ± 0.41.

For the sequence ECAKAFSRSAILIQHRRTHTDSKY [ZNF396], the protein stability index is, setting by setting: under setting [1], 2.55 ± 0.21; under setting [2], 2.67 ± 0.21.

Regarding ECGHNFCKACITRWWEDLERDFPC [TRIM39], the protein stability index runs as follows: under setting [1], 2.97 ± 0.49; under setting [2], 3.01 ± 0.7.

With EDDSMSVIEPVVENSGILQGKLIK [EFHC1], the protein stability index runs as follows: under setting [1], 4.89 ± 0.45; under setting [2], 5.45 ± 0.25.

In turn, EDEEEEEGENYQKGERGEDSSEEK [CHGB] returned a protein stability index under setting [1] of 5.622 ± 0.029 and a protein stability index under setting [2] of 5.66 ± 0.21.

With EDHKPGTFPKALTNGSFSPSGNNG [DLC1], the protein stability index runs as follows: under setting [1], 4.89 ± 0.11; under setting [2], 4.91 ± 0.37.

EDLEATSEHFKTTSQKVARKFWWK [VAMP8] registered a protein stability index under setting [1] of 4 ± 0.18 and a protein stability index under setting [2] of 3.82 ± 0.25.

With EDNLEDDDVEMKNGITQGDKLRAL [CDC14A], the protein stability index was found to be 5.44 ± 0.26 under setting [1] and 5.38 ± 0.12 under setting [2].

As for EDRVKLFGIEIEVTDINDNAPKFQ [PCDHGA10], the protein stability index was determined as 3.35 ± 0.43 under setting [1] and 3.52 ± 0.46 under setting [2].

In the case of EDTKPKPTKRKRKGSSAVGSDSD [INTS3], the protein stability index by setting is: under setting [3], 5.45 ± 0.25; under setting [4], 5.4 ± 0.33.

For the sequence EEAEGARWTSYRFSRVCRLHRGQL [TRIM35], the protein stability index is, setting by setting: under setting [1], 2.91 ± 0.23; under setting [2], 3 ± 0.08.

Turning to EEKIQVLQQQNEDLKARIDQNTVV [MTUS2], the protein stability index by setting is: under setting [1], 5.28 ± 0.24; under setting [2], 5.28 ± 0.069.

As to EELLYDYGDRSKASIEAHPWLKH [KMT5A], the protein stability index is, setting by setting: under setting [3], 4.9 ± 0.39; under setting [4], 4.83 ± 0.28.

In the case of EELVARSETHAAGHSQEKTHSREK [CHGB], the protein stability index was 5.66 ± 0.28 under setting [1] and 5.47 ± 0.5 under setting [2].

For EEPCSPGLLQDQGSGLSSRFEEPK [CBY2], the protein stability index under setting [1] stood at 5.4 ± 0.19 and the protein stability index under setting [2] worked out at 5.29 ± 0.34.

Turning to EESTPGQTNSETAVVALTQDQPSE [HDAC6], the protein stability index runs as follows: under setting [1], 5.49 ± 0.22; under setting [2], 5.59 ± 0.34.

For the sequence EEYPGITAEDSNDIYILPSDNSGQ [BCL2L13], the protein stability index by setting is: under setting [1], 5.25 ± 0.18; under setting [2], 5.14 ± 0.21.

In the case of EFDYLKSLEIEEKINKIRWLPQQN [PPP2R2B], the protein stability index runs as follows: under setting [1], 2.62 ± 0.21; under setting [2], 2.9 ± 0.42.

On to EFFLEQTKKKGVKRPARLHTKPSQ [NOP53], for which the protein stability index is, setting by setting: under setting [1], 3.66 ± 0.55; under setting [2], 3.68 ± 0.5.

Consider EGDVCGVEPPGPGDTVVQGDLQET [PBXIP1], for which the protein stability index under setting [1] came out at 5.57 ± 0.28 and the protein stability index under setting [2] came out at 5.64 ± 0.19.

Take EGLNSSLCSPGHERRGTPADTEEP [PSD2]: the protein stability index under setting [1] was 5.39 ± 0.37 and the protein stability index under setting [2] is 5.53 ± 0.19.

As to EGLRELQRSRRLCHEDVEALAAIY [DAPK3], under setting [1], the protein stability index is 2.72 ± 0.74.

In the case of EGNALQGPILQKDYVQLENQWETP [ZNF449], the protein stability index under setting [1] stood at 4.86 ± 0.13 and the protein stability index under setting [2] was 4.68 ± 0.23.

Take EGRGPVTPLHLDLTQLHRLSLESS [PLEKHN1]: the protein stability index by setting is: under setting [1], 3.4 ± 0.31; under setting [2], 3.28 ± 0.22.

For EHACTVRNLARSQSVKMKDKLKID [TAF7L], the protein stability index reads like this: under setting [1], 4.75 ± 0.18; under setting [2], 4.81 ± 0.2.

As to EHPPEVSRETQRTPMNHQKAVNDE [FBXO34], the protein stability index is, setting by setting: under setting [1], 5.29 ± 0.21; under setting [2], 5.41 ± 0.075.

On to EIDCVDKDGNTPLHVAARYGHELL [ANKRD44], for which the protein stability index was 4.05 ± 0.26 under setting [1] and 4.05 ± 0.19 under setting [2].
